# Data as given in US20180066068A9, “ANTI-PSYK ANTIBODY MOLECULES AND USE OF SAME FOR SYK-TARGETED THERAPY” (Millennium Pharmaceuticals, Inc., priority 2014, published 2018).
# Experiments:
# [1] = test system: pSYK, pBLNK, cleaved caspase 3 in PHTX-95L primary DLBCL xenografts; assay: Pharmacodynamics by IHC in PHTX-95L xenografts; type: in vivo, NOD SCID mice
# [2] = test system: pSYK in TMD8 lymphoma cell line xenograft; assay: Pharmacodynamics by IHC in TMD8 xenografts; type: in vivo, mice; conditions: single oral dose 120 mg/kg, two hours after dosing; MIL81-1-8 hybridoma and molecular clone antibodies
# DLBCL cell lines = assay: Inhibition of cellular proliferation; type: cell-based; conditions: expanded set of relevant models; 72 hours of treatment, DLBCL cell lines (FIG. 21)
# [3] = molecular target: T1, SYK in lysates of WSU-DLCL2 cells (Homo sapiens, UniProt P43405); assay: Western blot of cell lysates, WSU-DLCL2; type: binding; conditions: lysate of stimulated cells
# T1 construct: endogenous in cells; host or cells: WSU-DLCL2 cells, unstimulated or stimulated (BCR crosslinking or pervanadate)
# Protocol: Additional cell culture material was used to screen antibodies by utilizing WSU-DLCL2 (human diffuse large B-cell lymphoma) cells that were stimulated through crosslinking the B-cell receptor (AffiniPure F(ab′)^2 fragment of goat anti-human Ig, cat #109-006-127, JacksonImmuno Research Laboratories, Inc., West Grove, Pa.) or with pervanadate treatment (25 μL into 1 mL of cells of the following; 50 μL Na3VO4, 5.5 μL 9.1M H2O2(31%), 944.5 μl H2O) over a 60 min time course. At each time point cells were collected and lysed in MPER (Thermo: 7850) containing both a protease inhibitor cocktail I (Calbiochem:539131-10VL) and 1× HALT a generic protein phosphatase inhibitor cocktail (Thermo: 78428). Also LY10 (OCI-LY10) cells were used as lysates without or with stimulation with cross-linking or pervanadate as described above. Ly10 cells have weak SYK expression compared to WSUDLCL2 cells (FIG. 1). […] (BLNK was detected in every sample by CST 3575 and SC15345 antibodies, with the pBLNK detection paralleling the pSYK detection in the crosslinked and pervanadate-treated cells.) One conclusion of this study extended the nucleic acid results, and found weak pSYK signal in the Ly10 crosslinked sample. […]
# [4] = molecular target: T2, phosphatase-treated GST-pSYK (de-pSYK) (Homo sapiens, UniProt P43405); assay: Western blot on phosphatase-treated GST-pSYK; type: binding; conditions: GST-tagged recombinant SYK
# T2 construct: made in house; host or cells: baculovirus-infected Sf9 cells
# Protocol: Some of the autophosphorylated GST-pSYK was treated with T-cell protein phosphatase (TC-PTP, New England Biolabs), a tyrosine-specific phosphatase, for confirming specificity of antibodies to pSYK.
# (§1) Western blots were prepared from SDS-PAGE gels of GST-pSYK (IVK), and phosphatase-treated GST-pSYK. Each hybridoma multiclone supernatant was tested for binding to the blots. […] By this method, multiclone hybridoma supernatants with good binding of phosphorylated relative to dephosphorylated pSYK were 1, 2, 19, 24, 39, 49, 52, 53, 55, 59, 63, 70, 81, 84, 85, 87, 98 and 99.
# [5] = molecular target: T3, pSYK in human DLBCL biopsies (Homo sapiens, UniProt P43405); assay: IHC of human DLBCL biopsies, AMP HQ versus Leica IHC; type: binding
# T3 construct: from tissue; host or cells: FFPE human DLBCL biopsies; one normal lymph node
# Protocol: Antibodies were incubated with OmniMap goat anti-rabbit HRP secondary antibody (Ventana Medical Systems) for 16 minutes. A Discovery AMP TSA HQ kit (Ventana Medical Systems) was applied for 16 minutes followed by 16 minute incubation with the Discovery anti-HQ HRP (Ventana Medical Systems) antibody. The staining was then developed with the 3,3′-diaminobexidine (DAB) substrate map system. Slides were counterstained with hematoxylin and imaged using the Aperio whole slide scanning system (XT). A comparative staining was obtained with the MIL81-1-8 3H3/3L2 antibody using an automated protocol on a Leica automated stainer. pSYK protein levels in Formalin-Fixed, Paraffin-Embedded tissues were incubated with MIL81-1-8 3H3/3L2 antibody ([…]) for 30 minutes on the Leica Microsystems (Wetzlar, Germany) BOND RX automated stainer. Antibodies were incubated with a rabbit anti-goat HRP secondary antibody (Leica Laboratories) and developed with the 3,3′-diaminobexidine (DAB) substrate map system. Slides were counterstained with hematoxylin and imaged using the Aperio whole slide scanning system (XT). The staining of the AMP HQ and the Leica IHC were compared to determine staining specificity. […] Each was scored either positive (membrane stain was found) or negative (no membrane staining was found). […]
# [6] = molecular target: T4, pSYK in DLBCL patient samples and normal lymph node (Homo sapiens, UniProt P43405); assay: IHC of molecular clone versus hybridoma antibody on human biopsies; type: binding
# T4 construct: from tissue; host or cells: FFPE human DLBCL biopsies; one normal lymph node
# Protocol: The molecular clone antibody also was assessed by IHC. The immunohistochemical staining of antibody purified from MIL81-1-8 hybridoma supernatant as described above was compared to staining by MIL81-1-8 3H3/3L2 clone antibody purified from culture supernatant of transiently co-transfected HEK293 cells (also one-step purification-protein A chromatography followed by buffer exchange).
# Both the molecular clone and the hybridoma antibodies stained HBL1 to a moderate extent and strongly stained PHTX95L untreated samples. […] The molecular clone antibody was compared to the hybridoma antibody for staining biopsies of human tissues. There were three DLBCL patient samples and one normal lymph node sample (non-tumorigenic) from a patient. […] If nuclear staining would be considered off-target and lead to a determination of absence of pSYK, then a version of MIL81-1-8, with less nuclear relative to cytoplasmic or membranous staining could lead to fewer false negative results.
# GST-pSYK (IVK) = molecular target: T5, GST-pSYK (IVK) (Homo sapiens, UniProt P43405); assay: Western blot on autophosphorylated GST-pSYK (IVK); type: binding; conditions: GST-tagged recombinant SYK, compared with untreated
# T5 construct: made in house; host or cells: baculovirus-infected Sf9 cells
# Protocol: GST-hSYK was expressed in baculovirus-infected Sf9 cells and affinity-purified by glutathione Sepharose affinity resin. For in vitro kinase (IVK) pSYK, isolated GST-SYK was incubated in 1 mM ATP, 1 mM MgCl2 for 1 hr at room temperature to allow autophosphorylation to occur. The reaction was stopped by the addition of 5 mM EDTA and a small aliquot removed for treatment with 0.1% SDS, stored […] and used for AlphaScreen analysis or stored at −80° without further purification. This sample was later used at Epitomics for screening assays of hybridoma. An aliquot of the sample was analyzed by SDS-PAGE for Western blotting using anti-SYK (Cell Signaling Technologies #2712) and Epitomics 2175-1. The majority of the recombinant material was confirmed to be phosphorylated at Y525/526.
# as §1
# [7] = single dose 120 mg/kg, IHC of tumors harvested over time
Molecule,"cleaved caspase 3 expression [1, 7]","pBLNK (pBLNK65) expression time course [1, 7]","pSYK (pSYK525) expression time course [1, 7]","pSYK stain in PHTX95L xenograft after treatment ([1]; single oral dose 120 mg/kg, two hours after dosing, MIL81-1-8 hybridoma and molecular clone antibodies)",pSYK stain in TMD8 xenograft after treatment [2],EC50 (DLBCL cell lines),"Binding to SYK on western blot, stimulated WSU-DLCL2 cells [3]",Western blot staining of phosphatase-treated recombinant SYK [4],"Samples deemed positive (membrane stain) out of 82 ([5]; AMP HQ amplified IHC, 1:10,000 dilution)","Samples deemed positive (membrane stain) out of 82 ([5]; Leica IHC, 1:3200 dilution)","Overall IHC comparison with hybridoma antibody ([6]; cell pellets, xenografts and human biopsies)",Nuclear staining intensity compared to hybridoma antibody ([6]; human biopsies),Western blot staining of IVK-treated recombinant SYK (GST-pSYK (IVK))
"Cn1cc(-c2nc(N[C@@H]3CCCC[C@@H]3N)c(F)c3c2C(=O)NC3)cn1 [Compound A, 6-((1R,2S)-2-Aminocyclohexylamino)-7-fluoro-4-(1-methyl-1H-pyrazol-4-yl)-1H-pyrrolo[3,4-c]pyridin-3(2H)-one]",increase in expression,Time dependent inhibition,Time dependent inhibition,diminished,diminished,25 to 4000 nM,,,,,,,
"MIL81-1-8 3H3/3L2: recombinant molecular clone of MIL81-1-8; heavy chain SEQ ID NO:4, light chain SEQ ID NO:6, from transfected HEK293 cells (antibody) heavy: METGLRWLLLVAVLKGVQCQSVEESGGRLVTPGTPLTLTCTVSGIDLNSYIMSWVRQAPGKGLEWIGIISRRGNTYYASWPKGRFTISKTSTTVDLKITSPTTEDTATYFCARAYLYTSGTMSVWGPGTLVTVSSGQPKAPSVFPLAPCCGDTPSSTVTLGCLVKGYLPEPVTVTWNSGTLTNGVRTFPSVRQSSGLYSLSSVVSVTSSSQPVTCNVAHPATNTKVDKTVAPSTCSKPTCPPPELLGGPSVFIFPPKPKDTLMISRTPEVTCVVVDVSQDDPEVQFTWYINNEQVRTARPPLREQQFNSTIRVVSTLPIAHQDWLRGKEFKCKVHNKALPAPIEKTISKARGQPLEPKVYTMGPPREELSSRSVSLTCMINGFYPSDISVEWEKNGKAEDNYKTTPAVLDSDGSYFLYSKLSVPTSEWQRGDVFTCSVMHEALHNHYTQKSISRSPGK light: MDTRAPTQLLGLLLLWLPGARCADIVMTQTPSPVEAAVGGTVTIKCQASESISSYLSWYQQKPGQPPKLLIYRASTLVSGVPSRFKGSGSGTDFTLTISDLECADAATYYCQHTYFGSDYVGGFGGGTEVVVKGDPVAPTVLIFPPAADQVATGTVTIVCVANKYFPDVTVTWEVDGTTQTTGIENSKTPQNSADCTYNLSSTLTLTSTQYNSHKEYTCKVTQGTTSVVQSFNRGDC",,,,,,,stained the band,slightly stained,34,24,slightly better than the hybridoma antibody,remarkably reduced,stained the IVK-treated SYK band more intensely than the untreated SYK band
